The numbers were not newly measured in article PMC7192543, which cites them from elsewhere.

Some results are limits rather than exact numbers.

The target in series [1] is OmpR~P (Escherichia coli) (UniProt P0AA16).
The target in a further series is OmpR (Escherichia coli) (UniProt P0AA16). The series is described as follows: fluorescence anisotropy.

Consider EnvZ (from UniProt P0AEJ4), for which the Kd in series [1] was over 5000 nM.

In the case of “EnvZ cytoplasmic domain (EnvZc) (from UniProt P0AEJ4)”, in the series with OmpR (Escherichia coli), the Kd is 425 nM.
